Measured values taken from patent US20250382359A1 (BYOMASS, published 2025).
Changes are numbered by the printed parent chain.

T1: GDF15 (ligand used in the GFRAL/RET cell assays) (UniProt Q99988 197-308, limits assumed)
T1 sequence (looked up): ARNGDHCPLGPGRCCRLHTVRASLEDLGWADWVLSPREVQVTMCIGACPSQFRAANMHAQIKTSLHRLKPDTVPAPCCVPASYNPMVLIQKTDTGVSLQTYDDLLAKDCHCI

T2: GDNF (UniProt P39905 78-211)
T2 sequence (looked up): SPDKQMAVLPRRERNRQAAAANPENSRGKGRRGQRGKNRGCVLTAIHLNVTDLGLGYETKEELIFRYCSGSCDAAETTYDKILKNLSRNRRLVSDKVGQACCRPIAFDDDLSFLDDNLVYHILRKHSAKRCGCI

T3: GDF10 (UniProt P55107 369-478)
T3 sequence (looked up): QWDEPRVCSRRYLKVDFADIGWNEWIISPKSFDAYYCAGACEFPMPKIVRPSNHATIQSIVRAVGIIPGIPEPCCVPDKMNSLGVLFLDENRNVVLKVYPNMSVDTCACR

T4: Human BMP10 (human, UniProt O95393 317-424)
T4 sequence (looked up): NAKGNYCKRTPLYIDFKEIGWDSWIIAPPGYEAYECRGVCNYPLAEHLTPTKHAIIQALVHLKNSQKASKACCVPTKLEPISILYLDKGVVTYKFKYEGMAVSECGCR

T5: Human GDF15 Fc (human, UniProt Q99988 195-308, limits assumed, biotinylated (EZ-Link Sulfo-NHS-Biotinylation Kit) in the SPR assay)
T5 construct: also called human GDF15-Fc fusion; biotinylated Human GDF15 Fc; not shown: Fc part
T5 sequence: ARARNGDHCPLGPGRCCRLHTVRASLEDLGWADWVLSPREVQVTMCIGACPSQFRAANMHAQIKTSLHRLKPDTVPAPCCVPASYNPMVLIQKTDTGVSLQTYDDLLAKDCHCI

T6: Human Activin B (human, UniProt P09529 293-407)
T6 sequence (looked up): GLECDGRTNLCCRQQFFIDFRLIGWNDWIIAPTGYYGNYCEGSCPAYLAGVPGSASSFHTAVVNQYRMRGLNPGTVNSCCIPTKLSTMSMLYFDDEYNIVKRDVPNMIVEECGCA

T7: Human BMP9 (human, UniProt Q9UK05 320-429)
T7 sequence (looked up): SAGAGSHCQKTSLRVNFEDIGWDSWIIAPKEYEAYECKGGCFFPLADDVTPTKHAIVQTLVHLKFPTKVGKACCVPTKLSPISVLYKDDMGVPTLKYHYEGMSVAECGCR

T8: Cyno GDF15 Fc (cyno, UniProt G7PWZ3 193-308, limits assumed)
T8 construct: also called cyno GDF15-Fc fusion; not shown: Fc part
T8 sequence: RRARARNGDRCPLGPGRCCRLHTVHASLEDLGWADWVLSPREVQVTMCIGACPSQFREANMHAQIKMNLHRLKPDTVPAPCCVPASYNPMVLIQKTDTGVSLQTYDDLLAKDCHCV

T9: Mouse GDF15 Fc (mouse, UniProt Q9Z0J7 189-303, limits assumed)
T9 construct: also called mouse GDF15-Fc fusion; not shown: Fc part
T9 sequence (looked up): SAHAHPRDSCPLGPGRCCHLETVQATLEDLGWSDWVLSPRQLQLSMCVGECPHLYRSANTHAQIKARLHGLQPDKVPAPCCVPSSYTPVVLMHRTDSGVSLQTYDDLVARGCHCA

B1: GDF15 antibody agent Clone E, Fab (Fab, V domains shown)
VH: QVQLVQSGAEVKKPGASVKVSCKASGYTFTSYGINWVRQAPGQGLEWMGWITAYSGDTNYAQKLQGRVTMTTDTSTSTAYMELRSLRSDDTAVYYCARGPGQYADVDVWGQGTMVTVSS
VL: DIQMTQSPSSVSASVGDRVTITCRASQGISSWLAWYQQKPGKAPKLLIYAASSLQSGVPSRFSGSGSGTDFTLTISSLQPEDFATYYCQQANSFPITFGGGTKVEIK
notes: Fab; CH1 and CL of the Fab not specified; also called Fab of Clone E
B2: GDF15 antibody agent Clone K, Fab (Fab, V domains shown)
VH: QVQLVQSGAEVKKPGASVKVSCKASGYTFTNEGISWVRQAPGQGLEWMGWISAYTADTFYAQKLQGRVTMTTDTSTSTAYMELRSLRSDDTAVYYCARTRHDTSGLRFDYWGQGTLVTVSS
VL: B1 VL with S30D, A91V, N92H
notes: Fab; CH1 and CL of the Fab not specified; also called Fab of Clone K
B3: GDF15 antibody agent Clone I, Fab (Fab, V domains shown)
VH: B1 VH with S31D, Y32E, N59V
VL: B1 VL
notes: Fab; CH1 and CL of the Fab not specified; also called Fab of Clone I
B4: GDF15 antibody agent Clone L, Fab (Fab, V domains shown)
VH: B2 VH with T30A, N31S, E32Y, G33D, S35I, Y54L, T55S, A56G, F59V, L106I
VL: B1 VL with S30D, A91V, N92H
notes: Fab; CH1 and CL of the Fab not specified; also called Fab of Clone L
B5: GDF15 antibody agent Clone M, Fab (Fab, V domains shown)
VH: QVQLVQSGAEVKKPGASVKVSCKASGYTFDSYGINWVRQAPGQGLEWMGWISAYSGDTAYAQELQGRVTMTTDTSTSTAYMELRSLRSDDTAVYYCVRDTQYGGSPYWGQGTLVTVSS
VL: EIVMTQSPATLSVSPGERATLSCRASQSVSSNLAWYQQKPGQAPRLLIYGASTRATGIPARFSGSGSGTEFTLTISSLQSEDFAVYYCQQYNNWPITFGGGTKVEIK
notes: Fab; CH1 and CL of the Fab not specified; also called Fab of Clone M
B6: GDF15 antibody agent Clone B, IgG (antibody, V domains shown)
VH: QVQLQESGPGLVKPSQTLSLTCTVSGGSISSGGIYWTWIRQHPGKGLEWIGAIAYSGSTYYNPSLKSRVTISVDTSKNQFSLKLSSVTAADTAVYYCARGIEYQHFDYWGQGTLVTVSS
VL: not shown
B7: GDF15 antibody agent Clone H, Fab (Fab, V domains shown)
VH: QVQLVQSGAEVKKPGSSVKVSCKASGGTFSSYYISWVRQAPGQGLEWMGGIAPISGTASYAQKFQGRVTITADESTSTAYMELSSLRSEDTAVYYCARGLAYDGYFDLWGRGTLVTVSS
VL: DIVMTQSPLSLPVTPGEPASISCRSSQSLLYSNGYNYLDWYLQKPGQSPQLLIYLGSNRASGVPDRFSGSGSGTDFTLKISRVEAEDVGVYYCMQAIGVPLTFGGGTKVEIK
notes: Fab; CH1 and CL of the Fab not specified; also called Fab of Clone H
B8: GDF15 antibody agent Clone Q, IgG (antibody, V domains shown)
VH: B6 VH
VL: not shown
B9: GDF15 antibody agent Clone R, IgG (antibody, V domains shown)
VH: B6 VH with K66E
VL: not shown
B10: GDF15 antibody agent Clone O, Fab (Fab, V domains shown)
VH: QVQLVQSGAEVKKPGATVKVSCKASGYTFDSLGMSWVRQAPGQGLEWMGYISTYSGDTVYAQKLQGRVTMTTDTSTSTAYMELRSLRSDDTAVYYCARESGQQVSALDPWGQGTLVTVSS
VL: B1 VL with S31R, A91G, N92A, I96L
notes: Fab; CH1 and CL of the Fab not specified; also called Fab of Clone O

Target: T1, GDF15 (ligand used in the GFRAL/RET …)
Experiment: cell-based or functional assay

Row | GDF15 GFRAL RET pERK Fab IC50 pM | GDF15-GFRAL RET pERK IC50 (pM) | GDF15-GFRAL-RET Luciferase IC50 (pM) | Binder
1 | 46.7 pM |  |  | B1
2 | 169 pM |  |  | B2
3 | 111 pM |  |  | B3
4 | 2.1 µM |  |  | B4
5 | 1370 pM |  |  | B5
6 |  | 104 pM | 66.2 pM | B6
7 | 24.6 pM |  |  | B7

Target: T2, GDNF
Experiment: BLI Octet; IgG on sensor

Row | binding result | Binder
8 | no binding (tested: 100 nM) | B6
9 | no binding (tested: 100 nM) | B8
10 | no binding (tested: 100 nM) | B9

Target: GDF8 (UniProt O14793 267-375)
Experiment: BLI Octet; IgG on sensor

Row | binding result | Binder
11 | no binding (tested: 100 nM) | B6
12 | no binding (tested: 100 nM) | B8
13 | no binding (tested: 100 nM) | B9

Target: T3, GDF10
Experiment: BLI Octet; IgG on sensor

Row | binding result | Binder
14 | no binding (tested: 100 nM) | B6
15 | no binding (tested: 100 nM) | B8
16 | no binding (tested: 100 nM) | B9

Target: T10, GDF11 (UniProt O95390 299-407)
T10 construct: Also used as ligand in the Activin 2B receptor/SMAD reporter assay
T10 sequence (O95390 299-407 limits assumed): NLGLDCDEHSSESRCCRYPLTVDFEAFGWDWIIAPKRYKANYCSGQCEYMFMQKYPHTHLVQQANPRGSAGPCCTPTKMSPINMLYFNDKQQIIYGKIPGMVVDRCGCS
Experiment: BLI Octet; IgG on sensor

Row | binding result | Binder
17 | no binding (tested: 100 nM) | B6
18 | no binding (tested: 100 nM) | B8
19 | no binding (tested: 100 nM) | B9

Target: T4, Human BMP10
Experiment: BLI Octet; IgG on sensor

Row | binding result | Binder
20 | no binding (tested: 100 nM) | B8

Target: T5, Human GDF15 Fc
Experiment: BLI Octet; IgG on sensor, 100 nM antigen (avid)
Experimental: Briefly, ForteBio affinity measurements were performed by loading IgGs on-line onto AHC sensors. Sensors were equilibrated off-line in assay buffer for 30 min and then monitored on-line for 60 seconds for baseline establishment. Sensors with loaded IgGs were exposed to 100 nM antigen for 3 minutes, and afterwards were transferred to assay buffer for 3 min for off-rate measurement. All kinetics were analyzed using the 1:1 binding model.

Row | Kd | Binder
21 | 0.26 nM | B6

Target: T6, Human Activin B
Experiment: BLI Octet; IgG on sensor, 100 nM antigen (avid)

Row | Kd | Binder
22 | 145 nM | B6
23 | 172 nM | B8
24 | 188 nM | B9

Target: T7, Human BMP9
Experiment: BLI Octet; IgG on sensor, 100 nM antigen (avid)

Row | binding result | Binder
25 | binds | B6
26 | binds | B8
27 | binds | B9

Target: T5, Human GDF15 Fc
Experiment: BLI Octet; antigen on sensor, 100 nM Fab (monovalent)

Row | Kd | Binder
28 | 0.921 nM | B1
29 | 2.11 nM | B2
30 | 0.016 nM | B10
31 | 1.25 nM | B3
32 | 1.58 nM | B4
33 | 3.88 nM | B5
34 | 1.24 nM | B7

Target: T8, Cyno GDF15 Fc
Experiment: as above

Row | Kd | Binder
35 | 0.413 nM | B1
36 | 2.4 nM | B2
37 | 0.077 nM | B10
38 | 1.38 nM | B3
39 | 1.56 nM | B4
40 | 1.91 nM | B5
41 | 1.42 nM | B7

Target: T9, Mouse GDF15 Fc
Experiment: as above

Row | Kd | Binder
42 | 3.08 nM | B1
43 | 333 nM | B2
44 | 1.6 nM | B10
45 | 1.45 nM | B3
46 | 229 nM | B4
47 | 31.4 nM | B5
48 | 50.9 nM | B7

Target: T5, Human GDF15 Fc
Experiment: SPR Biacore 8K; biotinylated antigen captured, Fab analyte
Experimental: Kinetic analysis was conducted at 25° C. in HBS-EP+running buffer (10 mM HEPES pH 7.4, 150 mM NaCl, 3 mM EDTA, 0.05% Surfactant P20) using a Biacore 8K optical biosensor (Cytiva, Marlborough, MA). The sample compartment was maintained at 10° C. for the duration of the experiment. The Biacore 8K can analyze up to 8 separate interactions in a single cycle.
Each experiment cycle began with an injection (300 s at 2 μL/min) overflow cells 1 and 2 of a 1:100 solution of biotin CAPture reagent (Cytiva) in running buffer. This was followed by an injection (45 s at 10.0 μL/min) of biotinylated human GDF15 (5 nM) overflow cell 2. […] The dissociation of the antibodies were monitored for 3420 s. Finally, an injection (120 s at 10 μL/min) of regeneration solution (6 M Guanidine-HCl in 0.25 M NaOH) overflow cells 1 and 2 prepared the sensor surface for another cycle. Several blank buffer samples were injected (300 s at 30 μL/min) overflow cells 1 and 2 throughout the duration of the experiment and used for reference surface subtraction—each were monitored for the same amount of dissociation time (3420 s) and regenerated under the same conditions as those for the Fab sample injections.

Row | Kd | koff | kon | Binder
49 | 0.0331 nM | 8.71e-05 s⁻¹ | 2.63e+06 M⁻¹ s⁻¹ | B1
50 | 0.23 nM | 0.00112 s⁻¹ | 4.87e+06 M⁻¹ s⁻¹ | B2
51 | 0.0341 nM | 7.11e-05 s⁻¹ | 2.08e+06 M⁻¹ s⁻¹ | B10
52 | 0.0672 nM | 0.000259 s⁻¹ | 3.85e+06 M⁻¹ s⁻¹ | B3
53 | 0.144 nM | 0.000576 s⁻¹ | 3.99e+06 M⁻¹ s⁻¹ | B4
54 | 0.599 nM | 0.00191 s⁻¹ | 3.2e+06 M⁻¹ s⁻¹ | B5
55 | 0.117 nM | 0.000735 s⁻¹ | 6.29e+06 M⁻¹ s⁻¹ | B7
